US11499162B2, “Plants having increased tolerance to herbicides” (BASF SE, priority 2016, dated 2022)

Type: biochemical
Conditions: pH 7.2
Procedure, shortened: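 TriA variants, N-His-tagged, were expressed in E. coli BL21(DE3) Gold with groEL/groES chaperones and purified by Ni-IDA affinity. Enzyme in 25 mM sodium phosphate pH 7.2 was incubated with azine substrates at 1 nM to 10 nM, 30° C. Products were identified by UPLC-HR-MS.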

| Molecule | Degradation in % of 6-cyclopentyl-N4-(2,3,4,5,6-pentafluorophenyl)-1,3,5-triazine-2,4-diamine | Degradation in % of Melamine |
| --- | --- | --- |
| Y85LL88AL92AY93L: mutated TriA variant of SEQ ID NO: 2 (protein, Pseudomonas) MQTLSIQHGTLVTMDQYRRVLGDSWVHVQDGRIVALGVHAESVPPPADRVIDARGKVVLPGFINAHTHVNQILLRGGPSHGRQLLDWAFNVALPGQKAMRPEDVAVAVRLYCAEAVRSGITTINDNADSAIYPGNIEAAMAVYGEVGVRVVYARMFFDRMDGRIQGYVDALKARSPQVELCSIMEETAVAKDRITALSDQYHGTAGGRISVWPAPAITPAVTVEGMRWAQAFARDRAVMWTLHMAESDHDERLHWMSPAEYMECYGLLDERLQVAHCVYFDRKDVRLLHRHNVKVASQVVSNAYLGSGVAPVPEMVERGMAVGIGTDDGNCNDSVNMIGDMKFMAHIHRAVHRDADVLTPEKILEMATIDGARSLGMDHEIGSIETGKRADLILLDLRHPQTTPHHHLAATIVFQAYGNEVDTVLIDGNVVMENRRLSFLPPERELAFLEEAQSRATAILQRANMVANPAWRSL | 13% | 0% |
| Q71NL92AY93LQ96TD128G: mutated TriA variant of SEQ ID NO: 2 (protein, Pseudomonas) MQTLSIQHGTLVTMDQYRRVLGDSWVHVQDGRIVALGVHAESVPPPADRVIDARGKVVLPGFINAHTHVNNILLRGGPSHGRQLYDWLFNVALPGTKAMRPEDVAVAVRLYCAEAVRSGITTINDNAGSAIYPGNIEAAMAVYGEVGVRVVYARMFFDRMDGRIQGYVDALKARSPQVELCSIMEETAVAKDRITALSDQYHGTAGGRISVWPAPAITPAVTVEGMRWAQAFARDRAVMWTLHMAESDHDERLHWMSPAEYMECYGLLDERLQVAHCVYFDRKDVRLLHRHNVKVASQVVSNAYLGSGVAPVPEMVERGMAVGIGTDDGNCNDSVNMIGDMKFMAHIHRAVHRDADVLTPEKILEMATIDGARSLGMDHEIGSIETGKRADLILLDLRHPQTTPHHHLAATIVFQAYGNEVDTVLIDGNVVMENRRLSFLPPERELAFLEEAQSRATAILQRANMVANPAWRSL | 85% | 0% |
| Y85LL88AL92AY93V: mutated TriA variant of SEQ ID NO: 2 (protein, Pseudomonas) MQTLSIQHGTLVTMDQYRRVLGDSWVHVQDGRIVALGVHAESVPPPADRVIDARGKVVLPGFINAHTHVNQILLRGGPSHGRQLLDWAFNVAVPGQKAMRPEDVAVAVRLYCAEAVRSGITTINDNADSAIYPGNIEAAMAVYGEVGVRVVYARMFFDRMDGRIQGYVDALKARSPQVELCSIMEETAVAKDRITALSDQYHGTAGGRISVWPAPAITPAVTVEGMRWAQAFARDRAVMWTLHMAESDHDERLHWMSPAEYMECYGLLDERLQVAHCVYFDRKDVRLLHRHNVKVASQVVSNAYLGSGVAPVPEMVERGMAVGIGTDDGNCNDSVNMIGDMKFMAHIHRAVHRDADVLTPEKILEMATIDGARSLGMDHEIGSIETGKRADLILLDLRHPQTTPHHHLAATIVFQAYGNEVDTVLIDGNVVMENRRLSFLPPERELAFLEEAQSRATAILQRANMVANPAWRSL | 13% | 0% |
| L92AY93V: mutated TriA variant of SEQ ID NO: 2 (protein, Pseudomonas) MQTLSIQHGTLVTMDQYRRVLGDSWVHVQDGRIVALGVHAESVPPPADRVIDARGKVVLPGFINAHTHVNQILLRGGPSHGRQLYDWLFNVAVPGQKAMRPEDVAVAVRLYCAEAVRSGITTINDNADSAIYPGNIEAAMAVYGEVGVRVVYARMFFDRMDGRIQGYVDALKARSPQVELCSIMEETAVAKDRITALSDQYHGTAGGRISVWPAPAITPAVTVEGMRWAQAFARDRAVMWTLHMAESDHDERLHWMSPAEYMECYGLLDERLQVAHCVYFDRKDVRLLHRHNVKVASQVVSNAYLGSGVAPVPEMVERGMAVGIGTDDGNCNDSVNMIGDMKFMAHIHRAVHRDADVLTPEKILEMATIDGARSLGMDHEIGSIETGKRADLILLDLRHPQTTPHHHLAATIVFQAYGNEVDTVLIDGNVVMENRRLSFLPPERELAFLEEAQSRATAILQRANMVANPAWRSL | 58% | 0% |
| Y85LL88AL92AY93LQ96TD128G: mutated TriA variant of SEQ ID NO: 2 (protein, Pseudomonas) MQTLSIQHGTLVTMDQYRRVLGDSWVHVQDGRIVALGVHAESVPPPADRVIDARGKVVLPGFINAHTHVNQILLRGGPSHGRQLLDWAFNVALPGTKAMRPEDVAVAVRLYCAEAVRSGITTINDNAGSAIYPGNIEAAMAVYGEVGVRVVYARMFFDRMDGRIQGYVDALKARSPQVELCSIMEETAVAKDRITALSDQYHGTAGGRISVWPAPAITPAVTVEGMRWAQAFARDRAVMWTLHMAESDHDERLHWMSPAEYMECYGLLDERLQVAHCVYFDRKDVRLLHRHNVKVASQVVSNAYLGSGVAPVPEMVERGMAVGIGTDDGNCNDSVNMIGDMKFMAHIHRAVHRDADVLTPEKILEMATIDGARSLGMDHEIGSIETGKRADLILLDLRHPQTTPHHHLAATIVFQAYGNEVDTVLIDGNVVMENRRLSFLPPERELAFLEEAQSRATAILQRANMVANPAWRSL | 12% | 0% |
| L92AY93LQ96TD128G: mutated TriA variant of SEQ ID NO: 2 (protein, Pseudomonas) MQTLSIQHGTLVTMDQYRRVLGDSWVHVQDGRIVALGVHAESVPPPADRVIDARGKVVLPGFINAHTHVNQILLRGGPSHGRQLYDWLFNVALPGTKAMRPEDVAVAVRLYCAEAVRSGITTINDNAGSAIYPGNIEAAMAVYGEVGVRVVYARMFFDRMDGRIQGYVDALKARSPQVELCSIMEETAVAKDRITALSDQYHGTAGGRISVWPAPAITPAVTVEGMRWAQAFARDRAVMWTLHMAESDHDERLHWMSPAEYMECYGLLDERLQVAHCVYFDRKDVRLLHRHNVKVASQVVSNAYLGSGVAPVPEMVERGMAVGIGTDDGNCNDSVNMIGDMKFMAHIHRAVHRDADVLTPEKILEMATIDGARSLGMDHEIGSIETGKRADLILLDLRHPQTTPHHHLAATIVFQAYGNEVDTVLIDGNVVMENRRLSFLPPERELAFLEEAQSRATAILQRANMVANPAWRSL | 94% | 0% |
| Y85LL88AF89AL92AY93VQ96TD128G: mutated TriA variant of SEQ ID NO: 2 (protein, Pseudomonas) MQTLSIQHGTLVTMDQYRRVLGDSWVHVQDGRIVALGVHAESVPPPADRVIDARGKVVLPGFINAHTHVNQILLRGGPSHGRQLLDWAANVAVPGTKAMRPEDVAVAVRLYCAEAVRSGITTINDNAGSAIYPGNIEAAMAVYGEVGVRVVYARMFFDRMDGRIQGYVDALKARSPQVELCSIMEETAVAKDRITALSDQYHGTAGGRISVWPAPAITPAVTVEGMRWAQAFARDRAVMWTLHMAESDHDERLHWMSPAEYMECYGLLDERLQVAHCVYFDRKDVRLLHRHNVKVASQVVSNAYLGSGVAPVPEMVERGMAVGIGTDDGNCNDSVNMIGDMKFMAHIHRAVHRDADVLTPEKILEMATIDGARSLGMDHEIGSIETGKRADLILLDLRHPQTTPHHHLAATIVFQAYGNEVDTVLIDGNVVMENRRLSFLPPERELAFLEEAQSRATAILQRANMVANPAWRSL | 13% | 0% |
| Y85LL88AF89AL92AY93LQ96TD128G: mutated TriA variant of SEQ ID NO: 2 (protein, Pseudomonas) MQTLSIQHGTLVTMDQYRRVLGDSWVHVQDGRIVALGVHAESVPPPADRVIDARGKVVLPGFINAHTHVNQILLRGGPSHGRQLLDWAANVALPGTKAMRPEDVAVAVRLYCAEAVRSGITTINDNAGSAIYPGNIEAAMAVYGEVGVRVVYARMFFDRMDGRIQGYVDALKARSPQVELCSIMEETAVAKDRITALSDQYHGTAGGRISVWPAPAITPAVTVEGMRWAQAFARDRAVMWTLHMAESDHDERLHWMSPAEYMECYGLLDERLQVAHCVYFDRKDVRLLHRHNVKVASQVVSNAYLGSGVAPVPEMVERGMAVGIGTDDGNCNDSVNMIGDMKFMAHIHRAVHRDADVLTPEKILEMATIDGARSLGMDHEIGSIETGKRADLILLDLRHPQTTPHHHLAATIVFQAYGNEVDTVLIDGNVVMENRRLSFLPPERELAFLEEAQSRATAILQRANMVANPAWRSL | 9% | 0% |
| Y85LL88AL92AY93VQ96TD128G: mutated TriA variant of SEQ ID NO: 2 (protein, Pseudomonas) MQTLSIQHGTLVTMDQYRRVLGDSWVHVQDGRIVALGVHAESVPPPADRVIDARGKVVLPGFINAHTHVNQILLRGGPSHGRQLLDWAFNVAVPGTKAMRPEDVAVAVRLYCAEAVRSGITTINDNAGSAIYPGNIEAAMAVYGEVGVRVVYARMFFDRMDGRIQGYVDALKARSPQVELCSIMEETAVAKDRITALSDQYHGTAGGRISVWPAPAITPAVTVEGMRWAQAFARDRAVMWTLHMAESDHDERLHWMSPAEYMECYGLLDERLQVAHCVYFDRKDVRLLHRHNVKVASQVVSNAYLGSGVAPVPEMVERGMAVGIGTDDGNCNDSVNMIGDMKFMAHIHRAVHRDADVLTPEKILEMATIDGARSLGMDHEIGSIETGKRADLILLDLRHPQTTPHHHLAATIVFQAYGNEVDTVLIDGNVVMENRRLSFLPPERELAFLEEAQSRATAILQRANMVANPAWRSL | 14% | 0% |
| N70TQ71V: mutated TriA variant of SEQ ID NO: 2 (protein, Pseudomonas) MQTLSIQHGTLVTMDQYRRVLGDSWVHVQDGRIVALGVHAESVPPPADRVIDARGKVVLPGFINAHTHVTVILLRGGPSHGRQLYDWLFNVLYPGQKAMRPEDVAVAVRLYCAEAVRSGITTINDNADSAIYPGNIEAAMAVYGEVGVRVVYARMFFDRMDGRIQGYVDALKARSPQVELCSIMEETAVAKDRITALSDQYHGTAGGRISVWPAPAITPAVTVEGMRWAQAFARDRAVMWTLHMAESDHDERLHWMSPAEYMECYGLLDERLQVAHCVYFDRKDVRLLHRHNVKVASQVVSNAYLGSGVAPVPEMVERGMAVGIGTDDGNCNDSVNMIGDMKFMAHIHRAVHRDADVLTPEKILEMATIDGARSLGMDHEIGSIETGKRADLILLDLRHPQTTPHHHLAATIVFQAYGNEVDTVLIDGNVVMENRRLSFLPPERELAFLEEAQSRATAILQRANMVANPAWRSL | 3% | 0% |
